These results are taken from patent US20220242936A1 (CHANGCHUN GENESCIENCE PHARMACEUTICAL, published 2022).

Where no end group is shown, it is not given here.

The target of experiment [1] is Aβ1-42 polypeptide (human). As to the kind of experiment: cell-based or functional assay.
Experiment [2] concerns the target T1, Aβ1-42 polypeptide (human).
T1 construct: Synthetic peptide; also called Aβ1-42 monomer; Aβ monomer
Put plainly: SPR, Biacore T200, antibody captured on Protein A chip, human Aβ antigen as analyte. As for the experimental part:
Biacore-T200 detection was performed, ProteinA chip was used to capture candidate antibodies or positive antibodies, different concentrations of human Aβ antigen were used to flow through the chip, and the fitting analysis was performed based on the collected data. […] The detection conditions were: capture time: 30 s; antigen binding time: 120 s; dissociation time: 900 s; flow rate: 30 μl/min. And the regeneration conditions were: 20 mM NaOH solution, flow rate: 30 μl/min.
(In general: Surface plasmon resonance follows binding to a sensor surface in real time, without labels.)

Experiment [3] addresses T1, Aβ1-42 polypeptide. Put plainly: ELISA EC50 on Aβ42 monomer, 2 ml transient transfection; table note: '-' means no combination; expression 3.96 mg/L. A general note: An ELISA detects its analyte on a solid surface through an enzyme-linked reagent.
The target in experiment [4] is T1, Aβ1-42 polypeptide. Put plainly: ELISA EC50 on Aβ42 monomer, 2 ml transient transfection; table note: '-' means no combination; expression 3.12 mg/L.
Experiment [5] deals with T2, biotinylated Aβ1-42 polypeptide (human, biotinylated (site not stated)).
T2 construct: also called Full length Aβ1-42
T2 sequence (peptide, as listed by the source): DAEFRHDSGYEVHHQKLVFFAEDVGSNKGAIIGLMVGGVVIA
As to the kind of experiment: ELISA, hybridoma supernatant on biotinylated peptide captured by streptavidin. As for the experimental part:
(§1) Detection: After stopping the reaction, the microtiter plate was immediately placed into a microplate reader, the OD value was measured at 450 nm, and the original data was stored.
(§2) Data processing: The raw data were input into the software SoftMax Pro 6.2.1 for data processing.

The target of experiment [6] is T3, biotinylated Aβ1-16 polypeptide (also: biotinylated (site not given here)).
T3 construct: also called Aβ1-16 (N-terminal peptide fragment)
T3 peptide: DAEFRHDSGYEVHHQK
The description is as above. On the procedure: as §1, §2

The target of experiment [7] is T4, biotinylated Aβ14-29 polypeptide (biotinylated (site not stated)).
T4 construct: also called Aβ14-29 (middle peptide fragment)
Described as above. On the procedure: as §1, §2

The target in experiment [8] is T1, Aβ1-42 polypeptide. As to the kind of experiment: ELISA EC50 on Aβ42 monomer, 2 ml transient transfection; table note: '-' means no combination; expression 5.42 mg/L.
Experiment [9] has as its target T1, Aβ1-42 polypeptide. As to the kind of experiment: ELISA EC50 on Aβ42 monomer, 2 ml transient transfection; table note: '-' means no combination; expression 3.68 mg/L.
Experiment [10] has as its target T1, Aβ1-42 polypeptide. As to the kind of experiment: ELISA EC50 on Aβ42 monomer, 2 ml transient transfection; table note: '-' means no combination; expression 3.88 mg/L.

T1 sequence (peptide, as listed by the source): as above

B1: 066-4.26.14 mouse-human chimeric antibody (antibody, human IgG1, V domains shown)
VH: EVKLVESGGGLVKPGGSLKLSCAASGFTFRSYAMSWVRQTPEKRLEWVASISTTSNTYYPDSVKGRFTTSRDNARNIVYLQMSSLRSDDTAMYYCGRGVITNQAWFAYWGQGTLVTVSA
VL: DIVLTQSPATLSVTPGDSVSLSCRASQSISNNLHWYQQKSHESPRLLIKYASQSISGIPSRFSGSGSGTDFTLSVNNVGTEDFGMYFCQQSNSWPLTFGAGTKLELKR
For orientation: Kd means the concentration at which binding is half-saturated. The low end stands for higher affinity, the high end for lower affinity. As a reminder, the koff is the first-order rate constant of dissociation. As usually defined, the kon is a measure of how fast the partners come together. The low end stands for slow association, the high end for fast association. For B1, in the experiment with Aβ1-42 polypeptide [1], the “relative fluorescence intensity (ThT, Aβ polymerization; hIgG = 1.00)” value (“relative fluorescence intensity” below) is 0.71 relative to hIgG and the “relative value of LDH release (SHSY5Y cells with Aβ; hIgG = 1.00)” value (shortened to “relative value of LDH release”) is 1.32 relative to hIgG. In the experiment with Aβ1-42 polypeptide [2], this molecule returned a dissociation constant Kd of 12.6 nM, a dissociation rate constant (koff) of 0.000333 s⁻¹ and an on-rate constant (kon) of 26500 M⁻¹ s⁻¹.

B2: 066-4.26.14H5L3 (antibody, human IgG1, V domains shown)
VH: EVQLVESGGGLVQPGGSLRLSCVASGFTFRSYAMSWVRQAPGKGLEWVASISTTSNTYYPDSVKGRFTTSRDNSKNTVYLQMSSLRAEDTAVYYCGRGVITNQAWFAYWGQGTLVTVSS
VL: DIVLTQSPDFQSVTPKEKVTISCRASQSISNNLHWYQQKPDQSPKLLIKYASQSISGIPSRFSGSGSGTDFTLTINSLEAEDAAAYFCQQSNSWPLTFGPGTKVEIKR
notes: Humanized full-length antibody; human IgG1 heavy constant and human kappa light constant (vectors pGS003-hIgG1CH, pGS003-hIgKCL)
For B2, in the experiment with Aβ1-42 polypeptide [1], the “relative fluorescence intensity” value is 0.78 relative to hIgG and the “relative value of LDH release” value was 1.41 relative to hIgG. In addition, in the experiment with Aβ1-42 polypeptide [2], the Kd was found to be 32.5 nM, the koff worked out at 0.00046 s⁻¹ and the association rate constant (kon) stood at 14200 M⁻¹ s⁻¹.

B3: 066-4.26.14H2L3 (antibody, human IgG1, V domains shown)
VH: EVQLVESGGGLVKPGGSLRLSCAASGFTFRSYAMSWVRQTPEKRLEWVASISTTSNTYYPDSVKGRFTTSRDNAKNSVYLQMSSLRAEDTAVYYCGRGVITNQAWFAYWGQGTTVTVSS
VL: DIVLTQSPDFQSVTPKEKVTISCRASQSISNNLHWYQQKPDQSPKLLIKYASQSISGIPSRFSGSGSGTDFTLTINSLEAEDAAAYFCQQSNSWPLTFGPGTKVEIKR
notes: as for B2
Take B3: in the experiment with Aβ1-42 polypeptide [1], the “relative fluorescence intensity” value is 0.67 relative to hIgG and the “relative value of LDH release” value is 1.42 relative to hIgG. In the experiment with Aβ1-42 polypeptide [2], this molecule displayed a Kd of 25.8 nM, an off-rate constant (koff) of 0.000472 s⁻¹ and a kon of 18300 M⁻¹ s⁻¹.

B4: 066-4.26.14H2L2 (antibody, human IgG1, V domains shown)
VH: EVQLVESGGGLVKPGGSLRLSCAASGFTFRSYAMSWVRQTPEKRLEWVASISTTSNTYYPDSVKGRFTTSRDNAKNSVYLQMSSLRAEDTAVYYCGRGVITNQAWFAYWGQGTTVTVSS
VL: DIVLTQSPATLSVSPGERATLSCRASQSISNNLHWYQQKPGQAPRLLIKYASQSISGIPARFSGSGSGTDFTLTISSLQSEDFAVYFCQQSNSWPLTFGGGTKVEIKR
notes: as for B2
On to B4, for which, in the experiment with Aβ1-42 polypeptide [1], the “relative fluorescence intensity” value was 0.62 relative to hIgG and the “relative value of LDH release” value is 1.41 relative to hIgG. In the experiment with Aβ1-42 polypeptide [2], this molecule displayed a Kd of 22.5 nM, an off-rate constant (koff) of 0.000433 s⁻¹ and a kon of 19200 M⁻¹ s⁻¹.

B5: 066-4.26.14H5L1 (antibody, human IgG1, V domains shown)
VH: EVQLVESGGGLVQPGGSLRLSCVASGFTFRSYAMSWVRQAPGKGLEWVASISTTSNTYYPDSVKGRFTTSRDNSKNTVYLQMSSLRAEDTAVYYCGRGVITNQAWFAYWGQGTLVTVSS
VL: DIVLTQSPATLSVSPGERVTLSCRASQSISNNLHWYQQKSGQAPRLLIKYASQSISGIPSRFSGSGSGTDFTLTISSLQSEDFAVYFCQQSNSWPLTFGGGTQVEIKR
notes: as for B2
For B5, in the experiment with Aβ1-42 polypeptide [1], the “relative fluorescence intensity” value is 0.68 relative to hIgG and the “relative value of LDH release” value is 1.37 relative to hIgG. Moreover, in the experiment with Aβ1-42 polypeptide [2], the Kd was determined as 24.8 nM, the koff came out at 0.000469 s⁻¹ and the kon amounted to 18900 M⁻¹ s⁻¹.

B6: 066-4.26.14H4L2 (antibody, human IgG1, V domains shown)
VH: EVQLVESGGGLVQPGGSLRLSCAASGFTFRSYAMSWVRQAPGKGLEWVASISTTSNTYYPDSVKGRFTTSRDNAKNSVYLQMSSLRDEDTAMYYCGRGVITNQAWFAYWGQGILVTVSS
VL: DIVLTQSPATLSVSPGERATLSCRASQSISNNLHWYQQKPGQAPRLLIKYASQSISGIPARFSGSGSGTDFTLTISSLQSEDFAVYFCQQSNSWPLTFGGGTKVEIKR
notes: as for B2
On to B6, for which, in the experiment with Aβ1-42 polypeptide [1], the “relative fluorescence intensity” value was 0.7 relative to hIgG and the “relative value of LDH release” value was 1.3 relative to hIgG. In the experiment with Aβ1-42 polypeptide [2], this molecule returned a Kd of 36.3 nM, a koff of 0.000463 s⁻¹ and an on-rate constant (kon) of 12800 M⁻¹ s⁻¹.

B7: 066-4.26.14H5L2 (antibody, human IgG1, V domains shown)
VH: EVQLVESGGGLVQPGGSLRLSCVASGFTFRSYAMSWVRQAPGKGLEWVASISTTSNTYYPDSVKGRFTTSRDNSKNTVYLQMSSLRAEDTAVYYCGRGVITNQAWFAYWGQGTLVTVSS
VL: DIVLTQSPATLSVSPGERATLSCRASQSISNNLHWYQQKPGQAPRLLIKYASQSISGIPARFSGSGSGTDFTLTISSLQSEDFAVYFCQQSNSWPLTFGGGTKVEIKR
notes: as for B2
As to B7, in the experiment with Aβ1-42 polypeptide [1], the “relative fluorescence intensity” value is 0.67 relative to hIgG and the “relative value of LDH release” value was 1.26 relative to hIgG. In the experiment with Aβ1-42 polypeptide [2], this molecule had a Kd of 20.8 nM, a koff of 0.000278 s⁻¹ and a kon of 13400 M⁻¹ s⁻¹.

B8: 066-4.26.14H4L4 (antibody, human IgG1, V domains shown)
VH: EVQLVESGGGLVQPGGSLRLSCAASGFTFRSYAMSWVRQAPGKGLEWVASISTTSNTYYPDSVKGRFTTSRDNAKNSVYLQMSSLRDEDTAMYYCGRGVITNQAWFAYWGQGILVTVSS
VL: EIVLTQSPGTLSLSPGERATLSCRASQSISNNLHWYQQKPGQAPRLLIKYASQSISGIPDRFSGSGSGTDFTLTISRLEPEDFAVYYCQQSNSWPLTFGGGTKVEIKR
notes: as for B2
For B8, in the experiment with Aβ1-42 polypeptide [3], the binding result is recorded as “no binding”.

B9: 066-4.26.14H5L4 (antibody, human IgG1, V domains shown)
VH: EVQLVESGGGLVQPGGSLRLSCVASGFTFRSYAMSWVRQAPGKGLEWVASISTTSNTYYPDSVKGRFTTSRDNSKNTVYLQMSSLRAEDTAVYYCGRGVITNQAWFAYWGQGTLVTVSS
VL: EIVLTQSPGTLSLSPGERATLSCRASQSISNNLHWYQQKPGQAPRLLIKYASQSISGIPDRFSGSGSGTDFTLTISRLEPEDFAVYYCQQSNSWPLTFGGGTKVEIKR
notes: as for B2
For the molecule B9, the binding result with Aβ1-42 polypeptide [4] is “no binding”.

B10: 066-7.17.2 (antibody, V domains shown)
VH: EVQLVESGGGLVKPGGSLKLSCAASGFTFSSYGMHWVRQAPEKGLEWVAMIWYDGTKKYYSDSVKGRFTISRDNAKNTLFLQMTSLRSEDTAMYYCARDRGIGTRHGPYFMDVWGQGTSVTVSS
VL: DIQMNQSPSSLSASLGDTITITCHARHNVRSYLNWYQQKPGNIPKLLIYAASSQQRGVPSRFSGSGSGTGFTLTISSLQPEDIATYYCLQSFGTPLTFGGGTKLEIK
Consider B10, for which the “OD value at 450 nm” value in experiment [5] amounted to 1.08 OD; in experiment [6], 0.92 OD; in [7], 0.0612 OD.

B11: 066-4.26.14H3L1 (antibody, human IgG1, kappa, V domains shown)
VH: EVQLVQSGAEVKKPGESLKISCKGSGYSFRSYAMSWVRQMPGKGLEWVASISTTSNTYYPDSVKGRVTTSRDKSISTAYLQWSSLKASDTAMYYCGRGVITNQAWFAYWGQGTLVTVSS
VL: DIVLTQSPATLSVSPGERVTLSCRASQSISNNLHWYQQKSGQAPRLLIKYASQSISGIPSRFSGSGSGTDFTLTISSLQSEDFAVYFCQQSNSWPLTFGGGTQVEIKR
notes: as for B2
Take B11: the binding result with Aβ1-42 polypeptide [8] is listed as “no binding”.

B12: 066-4.26.14H3L5 (antibody, human IgG1, kappa, V domains shown)
VH: EVQLVQSGAEVKKPGESLKISCKGSGYSFRSYAMSWVRQMPGKGLEWVASISTTSNTYYPDSVKGRVTTSRDKSISTAYLQWSSLKASDTAMYYCGRGVITNQAWFAYWGQGTLVTVSS
VL: EIVLTQSPDFQSVTPKEKVTITCRASQSISNNLHWYQQKPDQSPKLLIKYASQSISGVPSRFSGSGSGTDFTLTINSLEAEDAATYYCQQSNSWPLTFGQGTKVEIKR
notes: as for B2
B12: the binding result in the experiment with Aβ1-42 polypeptide [9] is recorded as “no binding”.

B13: 066-4.26.14H3L4 (antibody, human IgG1, kappa, V domains shown)
VH: EVQLVQSGAEVKKPGESLKISCKGSGYSFRSYAMSWVRQMPGKGLEWVASISTTSNTYYPDSVKGRVTTSRDKSISTAYLQWSSLKASDTAMYYCGRGVITNQAWFAYWGQGTLVTVSS
VL: EIVLTQSPGTLSLSPGERATLSCRASQSISNNLHWYQQKPGQAPRLLIKYASQSISGIPDRFSGSGSGTDFTLTISRLEPEDFAVYYCQQSNSWPLTFGGGTKVEIKR
notes: as for B2
For the molecule B13, in the experiment with Aβ1-42 polypeptide [10], the binding result is “no binding”.
